The record followed here is US20040147432A1 (MERCK, published 2004).

Experiment [1] addresses T1, human melanin concentrating hormone type 2 receptor (MCH-2R) (human, UniProt Q969V1 1-340). In words: cell-based or functional assay.
Experiment [2] has as its target T2, human MCH-1R (human, UniProt Q99705 1-353). Kind of experiment: cell-based or functional assay.
For experiment [3], the target named is T1, human melanin concentrating hormone …. Kind of experiment: SPA competition with [125I]-human MCH (Phe13, Tyr19) on receptor membranes. As for the experimental part: (§1) For the SPA-based assay, WGA-PVT beads (NEN Life Sciences Products) were resuspended in Dulbecco's PBS with calcium and magnesium (500 mg beads in 4 ml PBS). […] The suspension was mixed gently for 20 minutes, 12.3 ml of assay buffer and protease inhibitors were added (final concentration given): 2 μg/ml leupeptin, 10 μM phosphoramidon, 40 μg/ml bacitracin, 5 μg/ml aprotinin, 0.1 mM Pefabloc.
(§2) Coated beads were kept on ice until use. […] Binding reactions were allowed to proceed at room temperature for 3 hours. Quantitation was performed by scintillation counting (TopCount device).

The target of experiment [4] is T2, human MCH-1R. The experiment is described as above. The protocol:
as §1, §2

Bridges are numbered along the chain shown (N, C = ends). [ ]: non-standard residue; d: D form. The star is where a group is joined. Pentanoyl(5-guanidino) = NC(N)=NCCCCC(=O)*; hArg = N=C(N)NCCCC[C@H](N)C(=O)O; dCha = N[C@H](CC1CCCCC1)C(=O)O; Nle = CCCC[C@H](N)C(=O)O; Aib = CC(C)(N)C(=O)O; GABA = NCCCC(=O)O

T1 sequence (Q969V1 whole entry, form in doubt): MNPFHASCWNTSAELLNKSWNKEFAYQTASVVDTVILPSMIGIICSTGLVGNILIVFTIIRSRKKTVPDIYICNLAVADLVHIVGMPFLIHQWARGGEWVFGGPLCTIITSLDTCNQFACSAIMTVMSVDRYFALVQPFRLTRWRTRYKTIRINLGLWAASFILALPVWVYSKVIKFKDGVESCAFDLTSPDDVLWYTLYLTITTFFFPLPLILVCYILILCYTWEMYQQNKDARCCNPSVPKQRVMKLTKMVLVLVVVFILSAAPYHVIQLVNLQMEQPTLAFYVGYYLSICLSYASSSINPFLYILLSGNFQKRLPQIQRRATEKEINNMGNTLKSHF
T2 sequence (Q99705 whole entry, form in doubt): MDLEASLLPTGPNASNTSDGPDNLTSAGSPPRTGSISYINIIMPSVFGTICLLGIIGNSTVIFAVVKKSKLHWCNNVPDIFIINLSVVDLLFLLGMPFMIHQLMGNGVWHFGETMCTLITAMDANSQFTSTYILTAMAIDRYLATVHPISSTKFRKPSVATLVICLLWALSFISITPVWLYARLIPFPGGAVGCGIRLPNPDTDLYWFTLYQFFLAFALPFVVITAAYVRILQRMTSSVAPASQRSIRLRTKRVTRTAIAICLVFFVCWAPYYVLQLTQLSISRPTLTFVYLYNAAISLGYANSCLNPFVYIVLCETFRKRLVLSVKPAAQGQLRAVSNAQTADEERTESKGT

B1: SEQ. ID. NO. 13 (peptide)
peptide: Ac-RCML[dA]RVYRPC-NH2
modifications: disulfide 2-11
SMILES: CSCC[C@@H]1NC(=O)[C@@H](NC(=O)[C@H](CCCNC(=N)N)NC(C)=O)CSSC[C@@H](C(N)=O)NC(=O)[C@@H]2CCCN2C(=O)[C@H](CCCNC(=N)N)NC(=O)[C@H](Cc2ccc(O)cc2)NC(=O)[C@H](C(C)C)NC(=O)[C@H](CCCNC(=N)N)NC(=O)[C@@H](C)NC(=O)[C@H](CC(C)C)NC1=O
notes: also called D-Ala^10
Broadly, the IC50 is the concentration that gives 50% inhibition. Read a high IC50 as lower potency. On to B1, for which the “Activation % at 10 µM (aequorin functional assay)” value (“Activation % at 10 µM” for short) in experiment [1] is 103%; with human MCH-1R [2], 40%. Moreover, the results for the “EC50 (aequorin functional assay)” value (in experiment [1]; with human MCH-1R [2]) were 16 nM and 1360 nM, respectively. Moreover, the IC50 was found to be 3.2 nM in experiment [3] and 490 nM in the experiment with human MCH-1R [4].

B2: SEQ. ID. NO. 3 (peptide)
peptide: Ac-CMLGRVYRPC-NH2
modifications: disulfide 1-10; not fully specified
notes: positions numbered as in hMCH; also called ?Arg^6
As for B2, in experiment [1], the “EC50 (aequorin functional assay)” value was found to be 1500 nM. Also, in the experiment with human MCH-1R [2], the “Activation % at 10 µM” value is 6.5% and the “EC50 (aequorin functional assay)” value is 300 nM. The “% @ concentration” value in experiment [3] worked out at 38.5 % @ 10 µM. Besides, the IC50 with human MCH-1R [4] is 1.6 nM.

B3: SEQ. ID. NO. 4 (peptide)
peptide: Ac-RCALGRVYRPC-NH2
modifications: disulfide 2-11
SMILES: CC(=O)N[C@@H](CCCNC(=N)N)C(=O)N[C@H]1CSSC[C@@H](C(N)=O)NC(=O)[C@@H]2CCCN2C(=O)[C@H](CCCNC(=N)N)NC(=O)[C@H](Cc2ccc(O)cc2)NC(=O)[C@H](C(C)C)NC(=O)[C@H](CCCNC(=N)N)NC(=O)CNC(=O)[C@H](CC(C)C)NC(=O)[C@H](C)NC1=O
notes: also called Ala^8
In the case of B3, the “Activation % at 10 µM” value amounted to 104% in experiment [1] and 42% with human MCH-1R [2]. In addition, the figures for the “EC50 (aequorin functional assay)” value (in experiment [1]; in the experiment with human MCH-1R [2]) were 12 nM and 4100 nM, respectively. The results for the IC50 (in experiment [3]; with human MCH-1R [4]) were 18 nM and 15 nM, respectively.

B4: SEQ. ID. NO. 8 (peptide)
peptide: RCMLLRVYRPC
notes: also called Leu^10
For B4, the “Activation % at 10 µM” value came out at 80% in experiment [1] and 106% with human MCH-1R [2]. For the same molecule, the “EC50 (aequorin functional assay)” value in experiment [1] was determined as 54 nM; with human MCH-1R [2], 23 nM. In addition, the IC50 in experiment [3] was found to be 20 nM; with human MCH-1R [4] it was 0.06 nM.

B5: SEQ. ID. NO. 10 (peptide)
peptide: Ac-RCMLSRVYRPC-NH2
modifications: disulfide 2-11
SMILES: CSCC[C@@H]1NC(=O)[C@@H](NC(=O)[C@H](CCCNC(=N)N)NC(C)=O)CSSC[C@@H](C(N)=O)NC(=O)[C@@H]2CCCN2C(=O)[C@H](CCCNC(=N)N)NC(=O)[C@H](Cc2ccc(O)cc2)NC(=O)[C@H](C(C)C)NC(=O)[C@H](CCCNC(=N)N)NC(=O)[C@H](CO)NC(=O)[C@H](CC(C)C)NC1=O
notes: also called Ser^10
As for B5, the “Activation % at 10 µM” value in experiment [1] amounted to 95%; with human MCH-1R [2], 104%. In addition, the “EC50 (aequorin functional assay)” value in experiment [1] was found to be 44 nM; in the experiment with human MCH-1R [2], 65 nM. The IC50 in experiment [3] was found to be 52 nM; with human MCH-1R [4], 0.32 nM.

B6: SEQ. ID. NO. 27 (peptide)
peptide: Ac-RCMLGRVFRPC-NH2
modifications: disulfide 2-11
SMILES: CSCC[C@@H]1NC(=O)[C@@H](NC(=O)[C@H](CCCNC(=N)N)NC(C)=O)CSSC[C@@H](C(N)=O)NC(=O)[C@@H]2CCCN2C(=O)[C@H](CCCNC(=N)N)NC(=O)[C@H](Cc2ccccc2)NC(=O)[C@H](C(C)C)NC(=O)[C@H](CCCNC(=N)N)NC(=O)CNC(=O)[C@H](CC(C)C)NC1=O
notes: also called Phe^13
For B6, the “Activation % at 10 µM” value in experiment [1] amounted to 94%; in the experiment with human MCH-1R [2] it was 96%. Moreover, the “EC50 (aequorin functional assay)” value in experiment [1] came to 12 nM; with human MCH-1R [2], 46 nM. The IC50 in experiment [3] came to 1.5 nM; in the experiment with human MCH-1R [4], 1 nM.

B7: SEQ. ID. NO. 7 (peptide)
peptide: Ac-RCMLARVYRPC-NH2
modifications: disulfide 2-11
SMILES: CSCC[C@@H]1NC(=O)[C@@H](NC(=O)[C@H](CCCNC(=N)N)NC(C)=O)CSSC[C@@H](C(N)=O)NC(=O)[C@@H]2CCCN2C(=O)[C@H](CCCNC(=N)N)NC(=O)[C@H](Cc2ccc(O)cc2)NC(=O)[C@H](C(C)C)NC(=O)[C@H](CCCNC(=N)N)NC(=O)[C@H](C)NC(=O)[C@H](CC(C)C)NC1=O
notes: also called Ala^10
In the case of B7, the “Activation % at 10 µM” value in experiment [1] was 97%; with human MCH-1R [2], 104%. Besides, the “EC50 (aequorin functional assay)” value in experiment [1] is 7.7 nM; in the experiment with human MCH-1R [2], 31 nM. Moreover, the IC50 in experiment [3] stood at 4.6 nM; with human MCH-1R [4], 0.59 nM.

B8: SEQ. ID. NO. 34 (peptide)
peptide: [Pentanoyl(5-guanidino)]CML[dA]RVYRPC-NH2
modifications: disulfide 2-11 (inferred); not fully specified
notes: also called (?-NH2)-Arg^6, D-Ala^10
B8: the “Activation % at 10 µM” value in experiment [1] was found to be 110%; in the experiment with human MCH-1R [2], 4%. Besides, the “EC50 (aequorin functional assay)” value in experiment [1] was found to be 31 nM; in the experiment with human MCH-1R [2] it was 2000 nM. The values for the IC50 (in experiment [3]; with human MCH-1R [4]) were 250 nM and 30 nM, respectively.

B9: SEQ. ID. NO. 36 (peptide)
peptide: Ac-RCML[dA][hArg]VYRPC-NH2
modifications: disulfide 2-11 (inferred)
notes: also called D-Ala^10, Harg^11
As to B9, the results for the “Activation % at 10 µM” value (in experiment [1]; with human MCH-1R [2]) were 74% and 0.1%, respectively. Besides, the entries for the “EC50 (aequorin functional assay)” value (in experiment [1]; with human MCH-1R [2]) were 19 nM and more than 10000 nM, respectively. The IC50 turned out to be 0.9 nM in experiment [3] and 56 nM in the experiment with human MCH-1R [4].

B10: SEQ. ID. NO. 38 (peptide)
peptide: RCALXXVYRPC
modifications: D-Ala^10, Harg^11 (homoarginine)
notes: also called Ala^8, D-Ala^10, Harg^11
B10: in experiment [1], the “Activation % at 10 µM” value was determined as 49% and the “EC50 (aequorin functional assay)” value was 730 nM. For the same molecule, in the experiment with human MCH-1R [2], the “Activation % at 10 µM” value turned out to be 20% and the “EC50 (aequorin functional assay)” value was more than 10000 nM. The “% @ concentration” value in the experiment with human MCH-1R [4] was found to be 83 % @ 10 µM.

B11: SEQ. ID. NO. 11 (peptide)
peptide: Ac-RCML[Aib]RVYRPC-NH2
modifications: disulfide 2-11
SMILES: CSCC[C@@H]1NC(=O)[C@@H](NC(=O)[C@H](CCCNC(=N)N)NC(C)=O)CSSC[C@@H](C(N)=O)NC(=O)[C@@H]2CCCN2C(=O)[C@H](CCCNC(=N)N)NC(=O)[C@H](Cc2ccc(O)cc2)NC(=O)[C@H](C(C)C)NC(=O)[C@H](CCCNC(=N)N)NC(=O)C(C)(C)NC(=O)[C@H](CC(C)C)NC1=O
notes: also called Aib^10
For the molecule B11, the “Activation % at 10 µM” value stood at 104% in experiment [1] and 22% with human MCH-1R [2]. The “EC50 (aequorin functional assay)” value in experiment [1] worked out at 24 nM; with human MCH-1R [2], 1900 nM. Also, the half-maximal inhibitory concentration (IC50) is 2.2 nM in experiment [3] and 90 nM with human MCH-1R [4].

B12: SEQ. ID. NO. 35 (peptide)
peptide: RCALXRVYRPC
modifications: not fully specified; D-Ala^10
notes: also called Ala^8, D-Ala^10
With B12, in experiment [1], the “Activation % at 10 µM” value was found to be 120% and the “EC50 (aequorin functional assay)” value was found to be 140 nM. The “EC50 (aequorin functional assay)” value with human MCH-1R [2] was more than 10000 nM. Further, in the experiment with human MCH-1R [4], the “% @ concentration” value was determined as 70 % @ 1 µM.

B13: SEQ. ID. NO. 21 (peptide)
peptide: Ac-RCML[GABA]RVYRPC-NH2
modifications: disulfide 2-11 (inferred)
notes: also called εAbu^10
Consider B13, for which the entries for the “Activation % at 10 µM” value (in experiment [1]; with human MCH-1R [2]) were 112% and 101%, respectively. The IC50 with human MCH-1R [4] worked out at 2.1 nM.

B14: SEQ. ID. NO. 16 (peptide)
peptide: Ac-RCML[dCha]RVYRPC-NH2
modifications: disulfide 2-11 (inferred)
notes: also called D-Cha^10
On to B14, for which the “Activation % at 10 µM” value turned out to be 74% in experiment [1] and 0.1% with human MCH-1R [2]. For the same molecule, the “EC50 (aequorin functional assay)” value in experiment [1] was 207 nM; in the experiment with human MCH-1R [2], more than 10000 nM. Further, the IC50 in experiment [3] was found to be 74 nM; with human MCH-1R [4], 11 nM.

B15: SEQ. ID. NO. 26 (peptide)
peptide: Ac-RCMLG[Nle]VYRPC-NH2
modifications: disulfide 2-11 (inferred)
notes: also called Nle^11
For B15, the “Activation % at 10 µM” value in experiment [1] turned out to be 34%. Also, the “EC50 (aequorin functional assay)” value in experiment [1] was 58 nM; with human MCH-1R [2] it was more than 1000 nM. The IC50 in experiment [3] was 9 nM; in the experiment with human MCH-1R [4], 301 nM.

B16: SEQ. ID. NO. 12 (peptide)
peptide: RCMLXRVYRPC
modifications: Phg^10 (phenylglycine)
notes: also called Phg^10
For B16, the results for the “Activation % at 10 µM” value (in experiment [1]; with human MCH-1R [2]) were 80% and 0.1%, respectively. The figures for the “EC50 (aequorin functional assay)” value (in experiment [1]; with human MCH-1R [2]) were 140 nM and more than 10000 nM, respectively. For the same molecule, the IC50 in experiment [3] was found to be 312 nM; with human MCH-1R [4], 2.9 nM.

B17: SEQ. ID. NO. 5 (peptide)
peptide: RCXLGRVYRPC
modifications: Nle^8 (norleucine)
notes: also called Nle^8
Consider B17, for which, in experiment [1], the “Activation % at 10 µM” value came out at 105% and the “EC50 (aequorin functional assay)” value worked out at 12 nM. The “Activation % at 10 µM” value with human MCH-1R [2] was determined as 105%. This molecule yielded a half-maximal inhibitory concentration (IC50) in the experiment with human MCH-1R [4] of 0.5 nM.

B18: SEQ. ID. NO. 17 (peptide)
peptide: Ac-RCML[dF]RVYRPC-NH2
modifications: disulfide 2-11 (inferred)
notes: also called D-Phe^10
Regarding B18, the “Activation % at 10 µM” value came to 102% in experiment [1] and 5% with human MCH-1R [2]. For the same molecule, the “EC50 (aequorin functional assay)” value in experiment [1] was 25 nM; in the experiment with human MCH-1R [2] it was more than 10000 nM. Moreover, the results for the IC50 (in experiment [3]; in the experiment with human MCH-1R [4]) were 47 nM and 18 nM, respectively.
